# Data from patent US20240360208A1 (Hoffmann-La Roche, published 2024).
# T1: human CCL8 (MCP2) - wild type (wt) (human, UniProt P80075 24-99)
# T1 construct: also called huCCL8
# T1 sequence: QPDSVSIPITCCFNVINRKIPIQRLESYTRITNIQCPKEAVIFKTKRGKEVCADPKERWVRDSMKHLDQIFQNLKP
# B1: Humanized 11K2 (=11K2) (antibody, IgG1, V domains shown)
# VH: QVQLVQSGAEVKKPGSSVKVSCKASGLTISDTYMHWVRQAPGQGLEWMGRIDPANGNTKFDPKFQGRVTITADTSTSTAYMELSSLRSEDTAVYYCARGVFGFFDYWGQGTTVTVSS
# VL: DIQMTQSPSSLSASVGDRVTITCKATEDIYNRLAWYQQKPGKAPKLLISGATSLETGVPSRFSGSGSGTDYTLTISSLQPEDFATYYCQQFWSAPYTFGGGTKVEIK
# notes: IgG1 with kappa light chain; also called CCL2-0002; humanized 11k2 IgG1
# Tests used:
# [1] = target: T2, human CCL2 (MCP1) - wild type (wt) (human, UniProt P13500 24-99); assay: cell-based or functional assay
# [2] = target: T2, human CCL2 (MCP1) - wild type (wt); assay: cell-based or functional assay; remark: listed apart in the source
# [3] = target: T2, human CCL2 (MCP1) - wild type (wt); assay: SPR T200, 37 C, antibody captured, 1:1 model
# Method: (§1) Antibody clone supernatants were diluted 1:2 in system buffer and were captured for 1 min at 5 μl/min. […] Analyte kinetics were performed at 30 μl/min. As analyte in solution wt human CCL2 or monomeric CCL2 P8A variant CCL2 were used. Analytes were injected at 90 nM highest concentration. The analyte contact time was 3 min and the dissociation time was 10 min. The Biaevaluation software V.3.0 was used according to the instructions of the manufacturer GEHC. A 1:1 binding model with RMAX local was applied to apparently estimate kinetic rates.
# [4] = target: T3, human CCL2 (MCP1) - P8A variant (human, UniProt P13500 24-99); assay: SPR T200, 37 C, antibody captured, 1:1 model
# T3 construct: In-house point mutant that cannot dimerise; also called monomeric human CCL2; monomeric CCL2
# Method: as §1
# [5] = target: T2, human CCL2 (MCP1) - wild type (wt); assay: SPR T200, 25 C, anti-human Fc capture, 1:1 model, pH 5.5
# Method: (§2) An antibody capture system was established. 13000 MAb<h-Fc-pan>M-R10Z8E9-IgG (Roche) were immobilized at 25° C. at 18 μg/ml in 10 mM sodium acetate buffer pH 5.0, by EDC/NHS coupling as described by the manufacturer. The capture system was regenerated by an injection at 20 μl/min with HBS buffer (100 mM HEPES pH 7.4, 1.5 M NaCl, 0.05% (w/v) Tween 20), followed by a 1 min 15 see injection with 10 mM NaOH and two 10 mM glycine buffer pH 2.5 injections for 1 min. Antibodies were captured were injected for 30 see at 10 μl/min at 80 nM concentration diluted in the respective system buffer. […] The analyte contact time was 3 min and the dissociation time was 10 min. Analyte kinetics were performed at 50 μl/min.
# (§3) The Biaevaluation software V.3.0 was used according to the instructions of the manufacturer GEHC. A 1:1 binding model with RMAX local was applied to determine kinetic rates.
# [6] = target: T2, human CCL2 (MCP1) - wild type (wt); assay: SPR T200, 25 C, anti-human Fc capture, 1:1 model, pH 5.9
# Method: as §2, §3
# [7] = target: T2, human CCL2 (MCP1) - wild type (wt); assay: SPR T200, 25 C, anti-human Fc capture, 1:1 model, pH 6.3
# [8] = target: T2, human CCL2 (MCP1) - wild type (wt); assay: SPR T200, 25 C, anti-human Fc capture, 1:1 model, pH 6.7
# [9] = target: T2, human CCL2 (MCP1) - wild type (wt); assay: SPR T200, 25 C, anti-human Fc capture, 1:1 model, pH 7.1
# Method: as §2, §3
# [10] = target: T2, human CCL2 (MCP1) - wild type (wt); assay: SPR T200, 25 C, anti-human Fc capture, 1:1 model, pH 7.4
# Method: as §2, §3
# [11] = target: T2, human CCL2 (MCP1) - wild type (wt); assay: SPR T200, 25 C, anti-human Fc capture, 1:1 model, pH 7.9
# Method: as §2, §3
# [12] = target: T2, human CCL2 (MCP1) - wild type (wt); assay: SPR T200, 25 C, anti-human Fc capture, 1:1 model, pH 8.3
# Method: as §2, §3
# [13] = target: T2, human CCL2 (MCP1) - wild type (wt); assay: SPR T200, 25 C, anti-human Fc capture, 1:1 model, pH 8.3; pH 8.3
# [14] = target: T1, human CCL8 (MCP2) - wild type (wt); assay: SPR (Biacore T200), 25 °C, ACES pH 7.4; antibody captured on anti-human IgG (Fc), chemokine injected at 5 nM and 20 nM
# Method: (§4) Biacore assay method: The binding of anti-CCL2 antibodies to the CCL homologs e.g. CCL2 (MCP-1), CCL8 (MCP-2), CCL7 (MCP-3), and CCL13 (MCP-4) were assessed at 25° C. using Biacore T200 instrument (GE Healthcare). Mouse anti-human IgG (Fc) (GE Healthcare) was immobilized on each flow cells of a CM4 sensor chip using amine coupling kit (GE Healthcare) according to the recommended settings by the manufacturer. Antibodies and analytes were diluted into ACES pH 7.4 buffer (20 mM ACES, 150 mM NaCl, 1 mg/ml BSA, 0.05% Tween 20, 0.005% NaN3). Antibodies were captured onto the anti-Fc sensor surfaces, then recombinant human CCL homologs proteins was injected over the flow cell at 5 nM and 20 nM. […] Sensor surface was regenerated each cycle with 3M MgCl2. Binding sensorgram was processed using Biacore T200 Evaluation software, version 2.0 (GE Healthcare).
# [15] = target: T4, human CCL7 (MCP3) - wild type (wt) (human, UniProt P80098 24-99); assay: as above
# T4 construct: Bought from R&D Systems for the homolog assay
# Method: as §4
binder,measurement,setting,value
B1,"IC50, inhibition of THP-1 migration (chemotaxis assay)",[1],0.7 µg/mL
same,THP1 chemotaxis [fold change compared to IgG control],[2],7.2 fold
same,Kd,[3],0.028 nM
same,T1/2,[3],1.97 h
same,Kd,[4],0.035 nM
same,T1/2,[4],1.93 h
same,Kd,[5],0.01 nM
same,t 1/2-diss.,[5],1.97 h
same,Kd,[6],0.01 nM
same,t 1/2-diss.,[6],4.78 h
same,Kd,[7],0.003 nM
same,t 1/2-diss.,[7],19.2 h
same,Kd,[8],0.01 nM
same,t 1/2-diss.,[8],4.87 h
same,Kd,[9],0.01 nM
same,t 1/2-diss.,[9],3.58 h
same,Kd,[10],0.02 nM
same,t 1/2-diss.,[10],2.72 h
same,Kd,[11],0.02 nM
same,t 1/2-diss.,[11],2.75 h
same,t 1/2-diss.,[12],19.2 h
same,Kd,[13],≤ 0.003 nM
same,binding result,[14],binds
same,binding result,[15],no binding (tested: 20 nM)
